Data taken from US20230257714A1, “METHODS AND COMPOSITIONS FOR GENERATING HUMAN INDUCED MESENCHYMAL STEM CELLS” (SmartCella Solutions AB, priority 2022, published 2023).

Experiments:
[1] = system: iMSCs; assay: IL-10 secretion by iMSCs after IFNr treatment (ELISA); type: cell-based, human; conditions: IFNr 20 ng/mL or 50 ng/mL for three days; media supernatant; FIG. 7
Method: In a third set of experiments, the production of the anti-inflammatory factor IL-10 by the iMSCs was examined after treatment with IFNr. iMSCs (50k cells/well of a 24 well plate; approx. 25,000 cells/cm^2) were treated with low concentration (20 ng/mL) or high concentration (50 ng/mL) IFNr for three days to stimulate secretion of IL-10. The control group was the same culture conditions but without IFNr treatment. After three days, media supernatant was collected and the level of IL-10 secretion was quantified by standard ELISA analysis (human IL-10 Quantikine ELISA kit, R&D Systems, Cat. #D1000B).

[2] = system: iMSCs; assay: quantitative real-time PCR of immunomodulatory marker genes in iMSCs treated with immune stimulators; type: cell-based, human; conditions: iMSCs 100k cells/sample; dsRNA 500 ng/sample or IFNr 10 ng/ml; 24 hours; particularly IDO1, TLR3 and HGF; control genes CD73, CD90, CD105 not upregulated; FIG. 5
Method: In a first set of studies, iMSCs were treated with immune stimulators, either double-strand RNA (dsRNA) or recombinant human interferon gamma (IFNr)(R&D Systems, Cat. #35-IF-100). iMSCs (100k cells/sample) were cultured with dsRNA (500 ng/sample) or IFNr (10 ng/ml) for 24 hours. […] Immunostimulatory marker genes examined were: RIG1, TLR3, COX2, IDO1, HGF and TGF-beta. Control genes (for MSC surface markers) examined were: CD73, CD90 and CD105.

B1: IFNr: recombinant human interferon gamma (R&D Systems), immune stimulator (protein, UniProt P01579 24-161, looked up)
Interferon gamma: QDPYVKEAENLKKYFNAGHSDVADNGTLFLGILKNWKEESDRKIMQSQIVSFYFKLFKNFKDDQSIQKSVETIKEDMNVKFFNSNKKKRDDFEKLTNYSVTDLNVQRKAIHELIQVMAELSPAAKTGKRKRSQMLFRG
[1]
  secretion of IL-10 by iMSCs: dose-dependent
[2]
  expression of genes associated with immunostimulation (RIG1, TLR3, COX2, IDO1, HGF, TGF-beta): increased expression
